Molecular target: human sortilin on the cell surface (recombinant huSortilin on HEK 293 cells; endogenous on U251MG cells) (human), Q99523
Assay: flow cytometry, hPGRN-biotin on hSortilin HEK cells clone A (note under the bar chart)
Settings: remark: other sources report otherwise

human sortilin on the cell surface (recombinant huSortilin on HEK 293 cells; endogenous on U251MG cells) (human), Q99523, sequence (Q99523 78-831): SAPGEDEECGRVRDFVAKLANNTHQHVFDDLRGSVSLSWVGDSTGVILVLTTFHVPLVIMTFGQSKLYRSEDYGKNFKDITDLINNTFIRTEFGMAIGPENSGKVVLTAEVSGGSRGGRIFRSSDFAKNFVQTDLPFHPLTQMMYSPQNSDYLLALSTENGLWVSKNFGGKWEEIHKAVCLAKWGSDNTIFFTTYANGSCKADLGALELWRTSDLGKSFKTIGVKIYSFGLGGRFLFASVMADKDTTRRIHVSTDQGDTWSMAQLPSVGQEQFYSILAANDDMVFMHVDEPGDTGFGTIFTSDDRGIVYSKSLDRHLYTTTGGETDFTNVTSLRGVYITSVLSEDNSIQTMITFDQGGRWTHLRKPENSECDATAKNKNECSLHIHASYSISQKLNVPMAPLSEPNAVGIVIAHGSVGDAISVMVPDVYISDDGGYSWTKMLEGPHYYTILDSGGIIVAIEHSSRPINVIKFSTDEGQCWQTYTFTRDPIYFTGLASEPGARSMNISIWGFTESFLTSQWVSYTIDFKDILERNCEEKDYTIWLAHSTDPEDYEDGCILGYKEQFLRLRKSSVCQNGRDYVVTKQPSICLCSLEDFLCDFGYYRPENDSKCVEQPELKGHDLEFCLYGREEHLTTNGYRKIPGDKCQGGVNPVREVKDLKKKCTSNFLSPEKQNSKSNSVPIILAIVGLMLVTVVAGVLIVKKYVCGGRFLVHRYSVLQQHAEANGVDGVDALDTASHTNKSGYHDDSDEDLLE

B1: human progranulin, biotinylated (huPGRN-Biotin), P28799 18-593 (ligand, UniProt P28799 18-593, looked up)
chain: TRCPDGQFCPVACCLDPGGASYSCCRPLLDKWPTTLSRHLGGPCQVDAHCSAGHSCIFTVSGTSSCCPFPEAVACGDGHHCCPRGFHCSADGRSCFQRSGNNSVGAIQCPDSQFECPDFSTCCVMVDGSWGCCPMPQASCCEDRVHCCPHGAFCDLVHTRCITPTGTHPLAKKLPAQRTNRAVALSSSVMCPDARSRCPDGSTCCELPSGKYGCCPMPNATCCSDHLHCCPQDTVCDLIQSKCLSKENATTDLLTKLPAHTVGDVKCDMEVSCPDGYTCCRLQSGAWGCCPFTQAVCCEDHIHCCPAGFTCDTQKGTCEQGPHQVPWMEKAPAHLSLPDPQALKRDVPCDNVSSCPSSDTCCQLTSGEWGCCPIPEAVCCSDHQHCCPQGYTCVAEGQCQRGSEIVAGLEKMPARRASLSHPRDIGCDQHTSCPVGQTCCPSLGGSWACCQLPHAVCCEDRQHCCPAGYTCNVKARSCEKEVVSAQPATFLARSPHVGVKDVECGEGHFCHDNQTCCRDNRQGWACCPYRQGVCCADRRHCCPAGFRCAARGTKCLRREAPRWDAPLRDPALRQLL
modifications: here or on the partner: biotinylated at a ratio of 5:1 using EZ-Link NHS-PEG4-Biotin
ED50: 30 nM
